Data on two molecules can be found in patent publication US20120100575A1 (Biogen, published 2012).

Experiment [1] has as its target T1, human C1q (Sigma C0660) (human, UniProt P02745 23-245; P02746 28-253; P02747 29-245).
T1 construct: The three subunits come from general knowledge of C1q; also called complement protein C1q
The experiment in a line: C1q bridging ELISA: antibody captured on plate-coated soluble human CD154, human C1q detected with sheep anti-C1q. On the procedure:
(§1) The C1q binding assay was performed by coating 96 well Maxisorb ELISA plates (Nalge-Nunc Rochester, N.Y., USA) with 50 μl recombinant soluble human CD154 ligand (Karpusas et al. Structure, 15;3(12):1426 (1995) at 10 μg/ml overnight at 4° C. in PBS. The wells were aspirated and washed three times with wash buffer (PBS, 0.05% Tween 20) and blocked for ≧1 h with 200 μl/well of block/diluent buffer (0.1 M Na₂HPO₄, pH 7, 0.1 M NaCl, 0.05% Tween 20, 0.1% gelatin). The antibody to be tested was diluted in block/diluent buffer starting at 15 μg/ml with 3-fold dilutions. 50 μl were added per well, and the plates incubated for 2 h at room temperature. After aspirating and washing as above, 50 μl/well of 2 μg/ml of Sigma human C1q (C0660) diluted in block/diluent buffer was added and incubated for 1.5 h at room temperature. After aspirating and washing as above, 50 μl/well of sheep anti C1q (Serotec AHP033), diluted 3,560-fold in block/diluent buffer, was added. After incubation for 1 h at room temperature, the wells were aspirated and washed as above. […] The absorbance was read at 450 nm with a Softmax PRO instrument, and Softmax software was used to determine the relative binding affinity (C value) with a 4-parameter fit.
Background: An ELISA detects its analyte on a solid surface through an enzyme-linked reagent.

Experiment [2] concerns the target T2, FcγRI (CD64) on IFNγ-activated U937 cells (UniProt P12314 16-374, limits assumed).
T2 construct: whole, on cells; also called FcRγI
The experiment in a line: FcγRI bridging assay, FIG. 13 upper panel. On the procedure: (§2) Briefly, the FcγR bridging assay was performed by coating 96 well Maxisorb ELISA plates (Nalge-Nunc Rochester, N.Y., USA) with recombinant soluble human CD154 ligand (i.e., at a concentration of 1 μg/ml overnight at 4° C. in PBS; Karpusas, Hsu et al. 1995). Titrations of glycosylated or aglycosylated forms of anti-CD154 antibody (hu5c8) were then bound to CD154 for 30 minutes at 37° C., the plates were then washed, and the binding of fluorescently labeled U937 (CD64⁺) cells was measured. The U937 cells were grown in RPMI medium with 10% FBS, 10 mM HEPES, L-glutamine, and penicillin/streptomycin, split 1:2, and activated for one day prior to the assay with 1000 units/ml of IFNγ to increase Fc receptor (FcγRI) expression.
(§3) In the assays for both receptors, the Fc receptor-bearing cells were labeled with 2′,7′-bis-(2-carboxyethyl)-5-(and-6)-carboxyfluorescein acetoxymethyl ester (BCECF-AM) (Molecular Probes Eugene, Oreg., USA) for 20 minutes at 37° C. After washing to remove excess label, 1×10⁵ of the labeled cells were incubated in the assay for 30 minutes at 37° C. Unbound FcγR positive cells were removed by washing several times and plates were read on a microplate reader (Cytofluor 2350 Fluorescent Microplate Reader, Millipore Corporation Bedford, Mass., USA) at an excitation wavelength of 485 nm and an emission wavelength of 530 nm.

The target in experiment [3] is T1, human C1q (Sigma C0660). Put plainly: C1q bridging ELISA: antibody captured on plate-coated soluble human CD154, human C1q 2 µg/ml detected with sheep anti-C1q. On the procedure:
as §1

In experiment [4] the target is T2, FcγRI (CD64) on IFNγ-activated U937 …. Put plainly: FcγRI bridging assay: antibody captured on plate-coated soluble human CD154, binding of fluorescently labeled IFNγ-activated U937 (CD64+) cells. On the procedure:
as §2, §3

T2 sequence (P12314 16-374 limits assumed): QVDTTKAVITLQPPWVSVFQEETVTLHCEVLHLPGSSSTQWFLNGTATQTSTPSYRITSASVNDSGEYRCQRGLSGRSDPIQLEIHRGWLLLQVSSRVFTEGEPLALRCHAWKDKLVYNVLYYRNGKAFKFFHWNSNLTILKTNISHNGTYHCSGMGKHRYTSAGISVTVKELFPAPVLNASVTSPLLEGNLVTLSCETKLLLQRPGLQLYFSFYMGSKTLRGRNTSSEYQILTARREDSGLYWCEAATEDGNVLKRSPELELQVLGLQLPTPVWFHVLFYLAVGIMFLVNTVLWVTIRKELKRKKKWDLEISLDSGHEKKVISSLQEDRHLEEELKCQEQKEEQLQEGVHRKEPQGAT
T1 sequence (P02745 23-245 limits assumed, chain 1 of 3): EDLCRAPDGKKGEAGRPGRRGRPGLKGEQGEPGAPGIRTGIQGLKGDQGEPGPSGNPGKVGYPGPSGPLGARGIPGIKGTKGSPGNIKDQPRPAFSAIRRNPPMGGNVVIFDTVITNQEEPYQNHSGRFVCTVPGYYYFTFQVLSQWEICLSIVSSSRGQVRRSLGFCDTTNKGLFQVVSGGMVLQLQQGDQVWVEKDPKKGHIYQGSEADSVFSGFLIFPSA
T1 sequence (P02746 28-253 limits assumed, chain 2 of 3): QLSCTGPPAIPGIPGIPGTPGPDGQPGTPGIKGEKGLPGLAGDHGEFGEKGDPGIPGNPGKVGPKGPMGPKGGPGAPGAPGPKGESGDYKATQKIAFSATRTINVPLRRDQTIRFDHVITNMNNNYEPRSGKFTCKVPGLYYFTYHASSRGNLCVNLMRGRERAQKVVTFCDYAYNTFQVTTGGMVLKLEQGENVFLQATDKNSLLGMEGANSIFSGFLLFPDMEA
T1 sequence (P02747 29-245 limits assumed, chain 3 of 3): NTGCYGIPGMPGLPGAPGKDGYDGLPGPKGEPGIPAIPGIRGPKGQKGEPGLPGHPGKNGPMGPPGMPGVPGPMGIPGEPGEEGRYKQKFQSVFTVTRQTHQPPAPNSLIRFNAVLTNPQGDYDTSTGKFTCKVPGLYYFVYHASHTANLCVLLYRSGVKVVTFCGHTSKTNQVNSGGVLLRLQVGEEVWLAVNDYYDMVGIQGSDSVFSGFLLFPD

B1: hu5c8 IgG4 variant (S228P/T299A), aglycosylated (antibody)
heavy: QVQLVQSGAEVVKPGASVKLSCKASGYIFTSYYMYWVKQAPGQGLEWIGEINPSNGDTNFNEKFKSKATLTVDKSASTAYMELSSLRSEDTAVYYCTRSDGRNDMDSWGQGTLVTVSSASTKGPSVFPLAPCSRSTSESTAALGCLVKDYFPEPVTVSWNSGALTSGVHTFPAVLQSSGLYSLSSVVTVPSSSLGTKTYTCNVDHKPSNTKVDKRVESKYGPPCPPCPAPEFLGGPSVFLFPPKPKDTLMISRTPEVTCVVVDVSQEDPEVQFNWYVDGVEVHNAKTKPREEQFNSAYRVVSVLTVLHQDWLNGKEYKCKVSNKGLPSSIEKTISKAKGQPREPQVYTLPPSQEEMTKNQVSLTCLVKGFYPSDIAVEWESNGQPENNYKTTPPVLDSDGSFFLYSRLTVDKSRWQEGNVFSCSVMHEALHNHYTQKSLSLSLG
light: DIVLTQSPATLSVSPGERATISCRASQRVSSSTYSYMHWYQQKPGQPPKLLIKYASNLESGVPARFSGSGSGTDFTLTISSVEPEDFATYYCQHSWEIPPTFGGGTKLEIKRTVAAPSVFIFPPSDEQLKSGTASVVCLLNNFYPREAKVQWKVDNALQSGNSQESVTEQDSKDSTYSLSSTLTLSKADYEKHKVYACEVTHQGLSSPVTKSFNRGEC
notes: also called IgG4 T299A; aglycosyl IgG4 T299A antibody variant
With B1, the binding result is “no binding” in the experiment with human C1q (Sigma C0660) [1] and “binds” in experiment [2].

B2: hu5c8 IgG1 (glycosylated parent anti-CD154 antibody) (antibody)
heavy: not shown
light: B1 light
notes: Expressed in EBNA 293 cells; also called hu5c8 antibody; glycosylated IgG1
B2: the binding result (with human C1q (Sigma C0660) [3]; in experiment [4]) was “binds” each time.
